Assay results taken from article PMC12691694, “Bacillus velezensis LoaP promotes antitermination by antagonizing NusA”.

T1: NusA (Bacillus velezensis, UniProt A7Z4T1 1-373)
T1 sequence: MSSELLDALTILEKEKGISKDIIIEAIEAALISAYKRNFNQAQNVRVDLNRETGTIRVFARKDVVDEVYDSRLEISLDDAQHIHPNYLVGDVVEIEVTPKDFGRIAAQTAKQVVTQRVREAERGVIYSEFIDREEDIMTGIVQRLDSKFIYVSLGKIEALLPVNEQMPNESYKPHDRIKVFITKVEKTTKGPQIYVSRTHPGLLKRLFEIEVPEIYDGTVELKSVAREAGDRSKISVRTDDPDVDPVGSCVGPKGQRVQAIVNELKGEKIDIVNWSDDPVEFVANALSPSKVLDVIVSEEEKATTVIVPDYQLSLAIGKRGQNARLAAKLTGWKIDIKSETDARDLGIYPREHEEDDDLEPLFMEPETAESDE

B1: dfnA terminator (structured_RNA)
RNA: GGAAACACAAUGCGUUUGCGAUUUUUAAACCUGUGCUGAAUCGCAAACGCGUUUGUG

Molecular target: T1, NusA
Experiment: DRaCALA filter binding; 50 mM NaH2PO4 pH 7.2, 100 mM NaCl, 0.1 mM EDTA, 1 mM MgCl2, 100 ug/mL BSA, 25 ug/mL total yeast RNA, 2.5 nM labeled RNA, 45 min, room temperature
Details: protein: recombinant; tags: N-terminal His10-SUMO removed by bdSENP1; label: 5'-32P; hairpin

Binder	binding result
GGAAACACAGUUUGCGAUUUUUAAACCUGUGCUGAAUCGCAAACUGUG (structured_RNA) [dfnA* mutant terminator (dfnA mut)]	binds
B1	binds
